For experiment [1], the system named is Xenopus laevis oocytes. Description: Membrane (resting) current of oocytes in normal ND96 solution, two-electrode voltage clamp. It is filed as cell-based. On the procedure:
Preparation of RNA and oocytes. Total RNA was extracted from atria and ventricles of 19–21 day old rats of both sexes using the procedure of Chomczinski and Sacchi (1987) Anal. Biochem. 162:156–159. Poly (A) RNA was separated on an oligo-dT cellulose column (type 3, Collaborative Biochemical Products). Ventricle poly(A) RNA was fractionated by centrifugation (18 h, 30,000 g, 4° C.) on a linear 5%–25% sucrose gradient. Xenopus laevis oocytes were prepared as previously described (Dascal & Lotan (1992) in Methods in Molecular Biology, v. 13: Protocols in Molecular Neurobiology, eds. Longstaff & Revest). and injected with either 50–120 ng/oocyte poly(A) RNA, 120–200 ng/oocyte total RNA, or 35 ng/oocyte fractionated poly(A) RNA. In most cases, 5HT1A-R RNA (5–20 ng/oocyte) was co-injected with atrial or ventricle RNA. Final volume of the injected RNA solution was 50 nl. The oocytes were incubated for 3–7 days in the NDE solution (ND96 (see below) containing 1.8 Mm CaCl2 and supplemented with 2.5 Mm Na-pyruvate and 50 μg/ml gentamicin). Occasionally, either 2.5–5% heat-inactivated horse serum or 0.5 mM theophylline were added to the NDE solution. […]

Experiment [2] deals with T1, atrial inward rectifier K+ (KG) channel (Rattus norvegicus, UniProt P48548+P63251).
T1 construct: is expressed in oocytes injected with atrial RNA; expressed in transfected cells; host or cells: Xenopus laevis oocytes injected with rat atrial total or poly(A) RNA plus 5HT1A receptor cRNA
T1 sequence (P63251 1-501): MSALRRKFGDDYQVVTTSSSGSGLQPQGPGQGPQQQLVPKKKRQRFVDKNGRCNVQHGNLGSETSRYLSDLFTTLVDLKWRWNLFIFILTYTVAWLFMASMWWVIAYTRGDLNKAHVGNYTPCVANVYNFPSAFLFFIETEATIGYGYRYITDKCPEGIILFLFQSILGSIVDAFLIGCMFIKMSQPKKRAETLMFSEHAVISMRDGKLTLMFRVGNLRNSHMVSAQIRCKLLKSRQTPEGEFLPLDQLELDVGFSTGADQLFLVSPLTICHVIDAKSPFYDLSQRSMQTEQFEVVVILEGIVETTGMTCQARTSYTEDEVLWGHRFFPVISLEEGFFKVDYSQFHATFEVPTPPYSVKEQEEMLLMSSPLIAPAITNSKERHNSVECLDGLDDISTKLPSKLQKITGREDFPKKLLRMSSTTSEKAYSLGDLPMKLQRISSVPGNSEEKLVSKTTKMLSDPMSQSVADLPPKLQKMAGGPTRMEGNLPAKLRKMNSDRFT
T1 sequence (P48548 1-419): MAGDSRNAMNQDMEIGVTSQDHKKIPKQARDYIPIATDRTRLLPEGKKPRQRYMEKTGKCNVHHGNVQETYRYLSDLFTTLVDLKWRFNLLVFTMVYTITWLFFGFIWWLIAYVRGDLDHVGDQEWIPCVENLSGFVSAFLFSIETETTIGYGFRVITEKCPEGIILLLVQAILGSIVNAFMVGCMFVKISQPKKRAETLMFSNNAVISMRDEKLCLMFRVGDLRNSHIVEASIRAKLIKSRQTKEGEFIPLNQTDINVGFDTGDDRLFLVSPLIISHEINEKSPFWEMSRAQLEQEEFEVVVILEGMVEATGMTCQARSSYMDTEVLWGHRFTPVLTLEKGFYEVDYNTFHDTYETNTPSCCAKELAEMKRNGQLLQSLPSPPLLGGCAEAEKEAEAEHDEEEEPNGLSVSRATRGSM
Description: Two-electrode voltage clamp of the transmitter-evoked inward current (I5HT) in oocytes injected with atrial RNA + 5HT1A-R RNA. It is filed as cell-based.
Description: Solutions containing intermediate concentrations of K^+ were made by substituting K^+ for Na^+. Solution exchange and drug application were done by superfusing the cell placed in a 0.5 ml chamber. […] Stimulation, data acquisition, and analysis were performed using pCLAMP software (Axon Instruments, Foster City, Calif.).

The subject of experiment [3] is native oocytes.
Description: Electrophysiological recordings were performed using the two electrode voltage clamp method with the Dagan 8500 amplifier (Dagan Instruments, Minneapolis) as described (Dascal et al. (1986) Mol. Brain Res. 1:201–209). […]
Experiment [4] deals with Kir3.2. Description: ACh-induced inward current (m2R activation) in oocytes injected with Kir3.2 cRNA. It is filed as cell-based, mouse. The note with it: 1 μM ACh, 1 ng cRNA, n=7. From the text: (§1) Plasmids and DNAS. To isolate Kir3.2 and Kir3.3 from mouse brain RNA, oligonucleotides were designed that anneal to the first assigned methionine codon and the assigned stop codon of mouse Kir3.2 and Kir3.3 (Lesage et al (1994) FEBS Lett. 353:37–42). Kir3.0-specific sequences were coupled to a 5′-end untranslated sequence from alfalfa mosaic virus (Jobling and Gehrke (1987) Nature 325:622–625) and a T7 RNA polymerase recognition site to confer an optimal translational initiation site and allow RNA synthesis […] (cRNA). At the 3′ end, a poly(A) tail was added to confer RNA stability. Total RNA from adult mouse brain (purchased from Clontech) was used as template for cDNA synthesis (Sambrook et al., supra.). PCR was conducted in a thermal cycler (Perkin-Elmer) by using Vent Polymerase (New England Biolabs), which minimizes misincorporations during the amplification step. Kir3.2 and Kir3.3 PCR-derived sequences were then inserted into the pNoTA vector (5 Prime→3 Primer, Inc.) for subsequent sequence analysis. […]
(§2) Electrophysiology. Whole-cell currents from oocytes were measured by using an Axoclamp 2A or Geneclamp 500 amplifier (Axon Instruments, Foster City, Calif.) in the two-electrode, voltage-clamp configuration. […]

Experiment [5] has as its system Kir3.1. Description: ACh-induced inward current (m2R activation) in oocytes injected with Kir3.1 cRNA. It is filed as cell-based, rat. The note with it: 1 μM ACh, 1 ng cRNA, n=5.
Text: as §1, §2

The test system of experiment [6] is Kir3.1+2. Description: ACh-induced inward current (m2R activation) in oocytes coinjected with Kir3.1 and Kir3.2 cRNAs. It is filed as cell-based, rat Kir3.1, mouse Kir3.2. The note with it: 1 μM ACh, 0.5 ng each cRNA per oocyte, mean±SEM, n=5.
Text: as §1, §2

The subject of experiment [7] is constitutively active inward rectifier K+ channel(s) (IhK). Description: Two-electrode voltage clamp of the high-K+-evoked inward current (IhK) in oocytes. It is filed as cell-based, Xenopus laevis. The method, then:
Preparation of RNA and oocytes. Total RNA was extracted from atria and ventricles of 19–21 day old rats of both sexes using the procedure of Chomczinski and Sacchi (1987) Anal. Biochem. 162:156–159. Poly (A) RNA was separated on an oligo-dT cellulose column (type 3, Collaborative Biochemical Products). Ventricle poly(A) RNA was fractionated by centrifugation (18 h, 30,000 g, 4° C.) on a linear 5%–25% sucrose gradient. Xenopus laevis oocytes were prepared as previously described (Dascal & Lotan (1992) in Methods in Molecular Biology, v. 13: Protocols in Molecular Neurobiology, eds. Longstaff & Revest). and injected with either 50–120 ng/oocyte poly(A) RNA, 120–200 ng/oocyte total RNA, or 35 ng/oocyte fractionated poly(A) RNA. In most cases, 5HT1A-R RNA (5–20 ng/oocyte) was co-injected with atrial or ventricle RNA. Final volume of the injected RNA solution was 50 nl. The oocytes were incubated for 3–7 days in the NDE solution (ND96 (see below) containing 1.8 Mm CaCl2 and supplemented with 2.5 Mm Na-pyruvate and 50 μg/ml gentamicin). Occasionally, either 2.5–5% heat-inactivated horse serum or 0.5 mM theophylline were added to the NDE solution. Incubation of oocytes in pertussis toxin (PTX; List Biochemicals) was done in NDE solution without the addition of pyruvate, serum or theophylline. cDNAs of 5HT1A receptor (Karschin et al. (1991) P.N.A.S. 88:5694–5698) and Gi2a (a gift from M. I. Simon, Caltech) in pBluescript were linearized, and RNA was synthesized in vitro as described (Dascal and Lotan, supra.).
Electrophysiological recordings were performed using the two electrode voltage clamp method with the Dagan 8500 amplifier (Dagan Instruments, Minneapolis) as described (Dascal et al. (1986) Mol. Brain Res. 1:201–209). The oocytes were usually kept in the ND96 solution: 96 mM NaCl/2 mM KC1/1 mM MgCl2/1 mM CaCl2/5 mM Hepes, pH=7.5. Most measurements were done in the high K^+ solution (hK): 96 mM KCl/2 mM NaCl/1 mM MgCl2/1 mM CaCl2/5 mM Hepes, pH=7.5. Solutions containing intermediate concentrations of K^+ were made by substituting K^+ for Na^+. Solution exchange and drug application were done by superfusing the cell placed in a 0.5 ml chamber. GDP-β-S (trilithium salt; Sigma) was injected by pressure (Dascal et al. supra.). Stimulation, data acquisition, and analysis were performed using pCLAMP software (Axon Instruments, Foster City, Calif.).

In experiment [8] the target is Kir3.2, isolated by PCR from mouse brain RNA (mouse) (UniProt P48542). Description: cell-based or functional assay.
Experiment [9] has as its target Kir3.1 (Kir3.1/KGA), inward rectifier G-protein activated potassium channel polypeptide cloned from cardiac atrium (rat) (UniProt P63251). Description: cell-based or functional assay.
Experiment [10] concerns the target serotonin 5HT1A receptor (5HT1A-R). Description: cell-based or functional assay.
The mark [11] stands for this setting: 400–800 pmole/oocyte injected, 4 cells.
The mark [12] stands for this setting: RNA-injected oocytes without Gi2α RNA, 500 ng/ml, 20–26 h.

pEC50, pIC50: −log10 of the molar value. “Also recorded” adds a separate entry of the source.

9 molecules from patent US7138248B2, “Method of inhibiting inward rectifier, G-protein activated, mammalian, potassium channels and uses thereof” (California Institute of Technology, priority 1993, dated 2006) can be followed below.

Chain of Kir3.2, isolated by PCR from mouse brain RNA (mouse) (P48542 whole entry): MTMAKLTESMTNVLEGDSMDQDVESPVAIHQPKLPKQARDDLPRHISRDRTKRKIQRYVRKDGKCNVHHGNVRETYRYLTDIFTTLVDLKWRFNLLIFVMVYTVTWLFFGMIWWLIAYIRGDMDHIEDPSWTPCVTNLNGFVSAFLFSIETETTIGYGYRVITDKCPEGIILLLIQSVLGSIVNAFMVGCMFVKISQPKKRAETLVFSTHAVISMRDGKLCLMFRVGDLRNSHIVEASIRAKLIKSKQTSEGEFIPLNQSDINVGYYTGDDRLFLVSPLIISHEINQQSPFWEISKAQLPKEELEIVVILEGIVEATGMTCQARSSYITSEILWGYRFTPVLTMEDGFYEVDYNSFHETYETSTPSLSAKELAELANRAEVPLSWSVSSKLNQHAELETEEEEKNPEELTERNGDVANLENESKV

`NCCc1c[nH]c2ccc(O)cc12` [5HT, serotonin]: the “change in membrane current in ND96 bath solution” value in experiment [1] (RNA-injected oocytes, 4 to 5 days after injection, 10 μM ACh or 1–2 μM 5HT) is given as “did not cause any significant change”. Besides, in experiment [2], the pEC50 was around 7.82. Also, the “inward current induced by the transmitter in hK solution” value in [2] (RNA-injected oocytes of one frog, n=6) came out at 1102±84 nA. Besides, the “saturation of the I5HT dose-response curve” value in experiment [2] (hK solution, FIG. 1C) was “about 100 nM”. In experiment [2] (oocytes injected with Atrial + 5HT1A-R RNA, -80 mV, hK solution, 5HT 100 nM to 2 μM, mean±SEM (n)), the “I5HT, inward current evoked by 5HT” value is given as 290 ± 43 (55) nA. For the same molecule, the “effect of 5HT on current” value in experiment [3] is reported as “no effect”.
As to `CC(=O)OCC[N+](C)(C)C` [ACh, acetylcholine], the results for the “inward currents induced by ACh (IK,ACh)” value in experiment [4], in experiment [5] and in experiment [6] were −698±98 nA, −365±45 nA and −6.4±0.8 μA, respectively.
Turning to `[Ba+2]` [Ba^2+], in experiment [7] (300 μM, hK solution), the “block of IhK” value is on record as “about 20%”. Moreover, the pIC50 in experiment [7] (hK solution, -80 mV, FIG. 3D, read-out: IC50 for IhK block) is below 2.52; in [2] (hK solution, -80 mV, FIG. 3D, read-out: IC50 (half-inhibition concentration) for block of I5HT), around 4.82. Moreover, in experiment [1] (5 μM-3 mM, native or RNA-injected oocytes, holding potential -80 mV), the “change in resting current or conductance in normal ND96” value is on record as “did not cause any significant changes”. In addition, the “block of I5HT” value in [2] (300 μM, hK solution, FIG. 3B) was “almost completely blocks; also recorded: almost completely abolished”.
With `Nc1nc2c(ncn2[C@@H]2O[C@H](COP(=O)(O)OP(O)(O)=S)[C@@H](O)[C@H]2O)c(=O)[nH]1` [GDP-β-S], the “IhK after injection, % of control” value in experiment [7] (setting [11]) is 115±8 % of control. Besides, in experiment [2] (setting [11]), the “I5HT after injection, % of control” value is on record as 4±1 % of control.
In [8], G protein subunits Gβ1 and Gγ2 (Gβ1γ2) yielded a Gβγ-induced, inwardly rectifying currents in oocytes injected with Kir3.2 cRNA alone (1 ng per oocyte) of -5.1 µA and an inward K+ current (IK) in high-K+ solution, Kir3.2 alone with Gβ1γ2 of -305 nA. In [9], this molecule registered an inward K+ current (IK) in high-K+ solution, Kir3.1 alone with Gβ1γ2 of -104 nA and an inward K+ current (IK), Kir3.1 alone (control of the Kir3.1+3 experiment) of -481 nA.
Turning to “Gi2α, PTX-sensitive α subunit of a G-protein”, in experiment [10], the PTX inhibition of I5HT in oocytes injected with atrial RNA plus cRNAs encoding 5HT1A-R and Gi2α is 50%.
Consider “Kir3.2, isolated by PCR from mouse brain RNA (from UniProt P48542 1-425)”, for which, in experiment [9], the fold increase of IK of Kir3.1+2 over Kir3.1 alone (with Gβ1γ2) stood at 40 fold, the fold increase of IK of Kir3.1+2 over Kir3.2 alone (with Gβ1γ2) was found to be 14 fold, the fold increase of the ACh-induced current of Kir3.1+2 over Kir3.1 alone is 17 fold and the fold increase of the ACh-induced current of Kir3.1+2 over Kir3.2 alone was found to be 9 fold. In experiment [9], this molecule gave a fold increase of the major open-time component of Kir3.1+2 against Kir3.2 alone of 7 fold; an inward K+ current (IK) in high-K+ solution, Kir3.1+2 coexpressed with Gβ1γ2 of -4.3 µA; an inward currents induced by ACh (IK,ACh), Kir3.1+2 coexpressed with m2R, 1 µM ACh of -6.4 µA; a major component of single-channel open-time duration, Kir3.1+2 of 3.5 ms. The molecule further showed a time constant of the slower activation component at -80 mV, Kir3.1+2 coexpressed in [9] of 213 ms.
Take “Kir3.3, isolated by PCR from mouse brain RNA (from UniProt P48543 1-393)”: the Gβγ-induced, inwardly rectifying currents in oocytes coinjected with Kir3.2 and Kir3.3 cRNAs (0.5 ng each per oocyte) in experiment [8] is -129 nA. For the same molecule, in experiment [9], the fold increase of IK of Kir3.1+3 over Kir3.1 alone worked out at 7 fold; the inward K+ current (IK), Kir3.1 and Kir3.3 coexpressed (Kir3.1+3) was -3.4 µA.
Consider pertussis toxin [PTX], for which the “effect of treatment on IhK” value in experiment [7] (setting [12]) is “not affected”. Also, in experiment [7] (oocytes injected with atrial RNA plus cRNAs encoding 5HT1A-R and Gi2α), the “effect on IhK” value was “unaffected”. The “effect of treatment on I5HT” value in experiment [2] (setting [12]) was “not affected”. The “inhibition of I5HT” value in experiment [2] (oocytes injected with atrial RNA plus cRNAs encoding 5HT1A-R and Gi2α, P<0.01) is listed as “about 50%”.
